Source: patent publication US20080268549A1, “THIOFLAVIN T METHOD FOR DETECTION OF AMYLOID POLYPEPTIDE FIBRIL AGGREGATION” (priority 2007, published 2008)
“Also recorded” adds a separate entry of the source.

What was measured:
[1] = target: T1, β-amyloid peptide (1-40) (Homo sapiens, UniProt P05067); assay: Thioflavin T fluorescence assay of Aβ fibril aggregation; type: biochemical; settings: FIG. 5
T1 construct: β-amyloid peptide (1-40) can be obtained from Biosource; purchased Biosource (Camarillo, Calif.)
Description: (1) Prepare a stock ThT solution (1 mg/ml; 3.14 mM) in distilled, deionized water, aliquot into small samples and store long term at −20° C. in the dark. Thaw frozen samples only once and discard the remainder. Add 1.6 μl of ThT solution to 1.0 ml of 50 mM Tris buffer, pH 7.4 to yield a final 5.0 μM ThT solution.
(2) β-amyloid peptide (1-40) can be obtained from Biosource (Camarillo, Calif.), CLN from ReGen Therapeutics Plc (London, UK) and Thioflavin T from Sigma (St. Louis, Mo.). Prepare a stock solution of β-amyloid (by dissolving in 10 mM NaOH (0.5 mg/ml) and stored at −70° C. until used. Aβ in base is stable for at least 3 weeks frozen. Add 5.0 μl (2.5 μg) of β-amyloid stock solution to 1.0 ml of ThT/Tris buffer solution. It is preferable to avoid any contact with metal when preparing a amyloid solution since metal can oxidize the peptide.
(3) Measure the fluorescence intensity of 1.0 ml of Aβ/ThT/Tris solution using an excitation wavelength of 440 nm and an emission wavelength of 482 nm. A control solution of Aβ/Tris solution, without ThT can be used as a control. The fluorescence intensity above the control is used as a measure of fibril content.
(4) If the assay is intended to measure the change in Aβ aggregation and used to quantitate the effect of test agents, prepare a second sample containing the drug or agent as in step 2. Preincubate the samples for the appropriate length of time (usually days to weeks) required to yield a change in fluorescence intensity.
Samples of Aβ in base were prepared as described in Example 1. ThT in Tris buffer was then added to the sample together with CLN at a concentration range of 2.5-10 nM and was preincubated for either 1 or 2 days and the fluorescence intensity measured following the above procedure. […] After a 2-day treatment with 10 nM CLN, approximately 50% of the Aβ fibrils are dissolved.

[2] = target: T2, Aβ (1-40) (Homo sapiens, UniProt P05067); assay: Circular dichroism spectra of Aβ secondary structure
T2 construct: β-amyloid peptide (1-40) can be obtained from Biosource; purchased Biosource (Camarillo, Calif.)
Description: CD is routinely used to monitor changes in secondary structure (Wang et al., 2005). In order to verify that CLN does indeed cause a shift in secondary structure, a CD spectra of Aβ treated with CLN and control were taken at 24 and 48 h. For these experiments, a 10 μM solution of Aβ (1-40) (first solubilized in base as in previous examples) was prepared in 50 mM Tris buffer, pH 7.4, with and without 50 nM CLN and ThT. Circular dichroism (CD) spectra of the Aβ (1-40) peptide solutions were recorded using a Jasco J-715 CD spectropolarimeter at 25° C. using a bandwidth of 1.0 nm, a sensitivity of 0.5 nm and a recording speed of 50 nm/min. The results were plotted as ellipticity (mdeg) versus wavelength (nm).

T2 sequence (P05067 672-711 limits assumed): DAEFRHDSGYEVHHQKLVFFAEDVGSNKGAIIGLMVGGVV
T1 sequence (P05067 672-711 limits assumed): as above

| Molecule | Aβ fibrils dissolved ([1]; 10 nM CLN, 2-day treatment) | decrease in Aβ aggregation (ThT fluorescence), maximum ([1]; 10 nM CLN, at 2 days) [%] | effect on Aβ aggregation (ThT fluorescence) ([1]; CLN 2.5-10 nM, preincubated 1 or 2 days) | effect on secondary structure (conformation) of Aβ by CD spectra ([2]; 10 μM Aβ (1-40), 50 nM CLN, 50 mM Tris pH 7.4, 24 and 48 h, FIG. 6A) | effect of ThT on conformation of CLN treated Aβ samples by CD spectra ([2]; 10 μM Aβ (1-40) with 50 nM CLN and ThT, FIG. 6B) |
| --- | --- | --- | --- | --- | --- |
| colostrinin [CLN] | approximately 50% | 40 | dose-dependent decrease | shift from β-sheet to α-helix; also recorded: shifted to a random-coil/α-helical rich conformation |  |
| Cc1ccc2c(c1)sc(-c1ccc(N(C)C)cc1)[n+]2C.[Cl-] [ThT, Thioflavin T] |  |  |  |  | did not have an effect |
